# T1: cynomolgus monkey CD3 epsilon chain (CD3ε) (cynomolgus monkey (Macaca fascicularis), UniProt Q95LI5 22-198)
# T1 chain: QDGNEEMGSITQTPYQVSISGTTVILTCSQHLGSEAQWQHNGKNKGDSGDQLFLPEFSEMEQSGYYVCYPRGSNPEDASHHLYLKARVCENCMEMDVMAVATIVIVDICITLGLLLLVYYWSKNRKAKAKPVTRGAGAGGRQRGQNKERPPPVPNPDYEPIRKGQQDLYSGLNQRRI
# Tests used:
# [1] = target: T2, human CD3 epsilon chain (CD3ε) (human, UniProt P07766 22-207); experiment: FACS on isolated human T cells; FITC anti-human light chain secondary
# T2 construct: also called CD3ε on human T cells; human CD3ε
# Description: (§1) The heterodimeric bispecific antibodies described in Example 1 were produced in HEK 293 cells and were assayed by fluorescence activated cell sorting (FACS) for binding to T cells, which express CD3ε, and to a human ovarian cancer cell line, Ovcar-8, which expresses mesothelin. Briefly, the heterodimeric bispecific antibodies were incubated with about 50,000 Ovcar-8 cells or isolated human or cynomolgus monkey T cells at 4° C. for one hour. The cells were then washed and stained with a fluorescein isothiocyanate (FITC)-conjugated anti-human light chain secondary antibody and analyzed by flow cytometry. The relative binding was represented by the geometric mean of fluorescence intensity.
# [2] = target: T1, cynomolgus monkey CD3 epsilon chain …; experiment: cell-based or functional assay
# [3] = target: T1, cynomolgus monkey CD3 epsilon chain …; experiment: FACS on isolated cynomolgus monkey T cells; FITC anti-human light chain secondary
# Description: as §1
# T2 sequence (P07766 22-207 limits assumed): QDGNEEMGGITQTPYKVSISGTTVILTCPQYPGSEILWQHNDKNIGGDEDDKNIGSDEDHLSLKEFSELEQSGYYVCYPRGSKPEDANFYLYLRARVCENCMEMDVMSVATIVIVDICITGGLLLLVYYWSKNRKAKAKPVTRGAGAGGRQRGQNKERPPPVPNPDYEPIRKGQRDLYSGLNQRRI
Binder,FACS binding (geometric mean) [1],"Cyno TDCC EC50 (pM), Ovcar-8 target cells with cynomolgus monkey T cells [2] [pM]","Cyno TDCC Max killing (%), Ovcar-8 target cells with cynomolgus monkey T cells [2] [%]",FACS binding (geometric mean) [3]
H71362.2 (anti-MSLN/CD3ε heterodimeric bispecific antibody) (bispecific antibody) chain 1: EVQLVESGGGLVKPGVSLRLSCAASGFTFSRYGMNWVRQAPGKGLEWVSSISSSGTYIKYADSVKGRFTISRDNAKNSLNLQMNSLRAEDTAVYYCARDRDRYPLDYWGQGTLVTVSSASTKGPQVQLQESGPGLVKPSETLSLTCTVSGGSIISHYWSWIRQPPGKGLEWIGYIYYSGSTNYNPSLKSRVTISVDTSKNQFSLKLTSVTAADTAVYYCARDGWSAFDYWGQGTLVTVSSASTKGPSVFPLAPCSRSTSESTAALGCLVKDYFPEPVTVSWNSGALTSGVHTFPAVLQSSGLYSLSSVVTVPSSNFGTQTYTCNVDHKPSNTKVDKTVGGGGSAAAVPRDLEVVAATPTSLLISWDAIGLYPYYYRITYGETGGNSPVQEFTVPGSKSTATISGLKPGVDYTITVYAVSGIFGWNNSKPISINYRTGSSDYKDDDDKGSSHHHHHH chain 2: SYELTQPPSVSVSPGQTARITCSGDALPKKYAYWYQQKSGQAPVLVIYEATKRPSGIPERFSGSSSGTMATLTLSGAQVEDEADYYCYSTDSTNYHWVFGGGTKLTVLGTVAAPDIQMTQSPSSLSASVGDRVTITCRASQGIRNALGWYQQKPGKAPKRLIYAASSLQSGVPSRFSGSGSGTEFTLTISSLQPEDFATYYCLQHNSYPRTFGQGTKVEIRRTVAAPSVFIFPPSDEQLKSGTASVVCLLNNFYPREAKVQWKVDNALQSGNSQESVTEQDSKDSTYSLSSTLTLSKADYEKHKVYACEVTHQGLSSPVTKSFNRGEC,354 geometric mean of fluorescence intensity,–,–,–
H71365.2 (anti-MSLN/CD3ε heterodimeric bispecific antibody) (bispecific antibody) chain 1: QVQLVESGGGVVQPGRSLRLSCAASGFTFSSYGMHWVRQAPGKGLEWVAVISYPGNTKYYADSVKGRFTISRDNSKNTLYLQMNSLRAEDTAVYFCARDQKEWRLIFDYWGQGTLVTVSSGGGGSGGGGSQVQLQESGPGLVKPSQTLSLTCTVSGGSINNNNYYWTWIRQHPGKGLEWIGYIYYSGSTFYNPSLKSRVTISVDTSKTQFSLKLSSVTAADTAVYYCAREDTMTGLDVWGQGTTVTVSSASTKGPSVFPLAPCSRSTSESTAALGCLVKDYFPEPVTVSWNSGALTSGVHTFPAVLQSSGLYSLSSVVTVPSSNFGTQTYTCNVDHKPSNTKVDKTVGGGGSAAAVPRDLEVVAATPTSLLISWDAPHHGVAYYRITYGETGGNSPVQEFTVPGSKSTATISGLKPGVDYTINVYAVLAYPRGYPLSKPISINYRTDYKDDDDKGSSHHHHHH chain 2: DIQMTQSPSSVSASVGDRVTITCRASQGISSWLAWYQQKPGKAPKLLIYAASSLQSGVPSRFSGSGSGAAFTLTISSLQPEDFATYFCQQANSFPLTFAGGTKVDIKRGGGGSGGGGSDIQMTQSPSSLSASVGDRVTITCRASQSINNYLNWYQQKPGKAPTLLIYAASSLQSGVPSRFSGSRSGTDFTLTISSLQPEDFAAYFCQQTYSNPTFGQGTKVEVKRTVAAPSVFIFPPSDEQLKSGTASVVCLLNNFYPREAKVQWKVDNALQSGNSQESVTEQDSKDSTYSLSSTLTLSKADYEKHKVYACEVTHQGLSSPVTKSFNRGEC,66 geometric mean of fluorescence intensity,8.1,86,276 geometric mean of fluorescence intensity
H69072.4 (anti-MSLN/CD3ε heterodimeric bispecific antibody) (bispecific antibody) chain 1: DIQMTQSPSSVSASVGDRVTITCRASQGISSWLAWYQQKPGKAPKLLIYAASSLQSGVPSRFSGSGSGAAFTLTISSLQPEDFATYFCQQANSFPLTFAGGTKVDIKRGGGGSGGGGSQVQLQESGPGLVKPSQTLSLTCTVSGGSINNNNYYWTWIRQHPGKGLEWIGYIYYSGSTFYNPSLKSRVTISVDTSKTQFSLKLSSVTAADTAVYYCAREDTMTGLDVWGQGTTVTVSSASTKGPSVFPLAPCSRSTSESTAALGCLVKDYFPEPVTVSWNSGALTSGVHTFPAVLQSSGLYSLSSVVTVPSSNFGTQTYTCNVDHKPSNTKVDKTVGGGGSAAAVPRDLEVVAATPTSLLISWDAPHHGVAYYRITYGETGGNSPVQEFTVPGSKSTATISGLKPGVDYTINVYAVLAYPRGYPLSKPISINYRTDYKDDDDKGSSHHHHHH chain 2: DIQMTQSPSSLSASVGDRVTITCRASQSINNYLNWYQQKPGKAPTLLIYAASSLQSGVPSRFSGSRSGTDFTLTISSLQPEDFAAYFCQQTYSNPTFGQGTKVEVKGGGGSGGGGSQVQLVESGGGVVQPGRSLRLSCAASGFTFSSYGMHWVRQAPGKGLEWVAVISYPGNTKYYADSVKGRFTISRDNSKNTLYLQMNSLRAEDTAVYFCARDQKEWRLIFDYWGQGTLVTVSSRTVAAPSVFIFPPSDEQLKSGTASVVCLLNNFYPREAKVQWKVDNALQSGNSQESVTEQDSKDSTYSLSSTLTLSKADYEKHKVYACEVTHQGLSSPVTKSFNRGEC,11 geometric mean of fluorescence intensity,18.8,91,110 geometric mean of fluorescence intensity
H69071.4 (anti-MSLN/CD3ε heterodimeric bispecific antibody) (bispecific antibody) chain 1: QVQLQESGPGLVKPSQTLSLTCTVSGGSINNNNYYWTWIRQHPGKGLEWIGYIYYSGSTFYNPSLKSRVTISVDTSKTQFSLKLSSVTAADTAVYYCAREDTMTGLDVWGQGTLVTVSSGGGGSGGGGSDIQMTQSPSSVSASVGDRVTITCRASQGISSWLAWYQQKPGKAPKLLIYAASSLQSGVPSRFSGSGSGAAFTLTISSLQPEDFATYFCQQANSFPLTFAGGTKVDIKRASTKGPSVFPLAPCSRSTSESTAALGCLVKDYFPEPVTVSWNSGALTSGVHTFPAVLQSSGLYSLSSVVTVPSSNFGTQTYTCNVDHKPSNTKVDKTVGGGGSAAAVPRDLEVVAATPTSLLISWDAPHHGVAYYRITYGETGGNSPVQEFTVPGSKSTATISGLKPGVDYTINVYAVLAYPRGYPLSKPISINYRTDYKDDDDKGSSHHHHHH chain 2: QVQLVESGGGVVQPGRSLRLSCAASGFTFSSYGMHWVRQAPGKGLEWVAVISYPGNTKYYADSVKGRFTISRDNSKNTLYLQMNSLRAEDTAVYFCARDQKEWRLIFDYWGQGTLVTVSSGGGGSGGGGSDIQMTQSPSSLSASVGDRVTITCRASQSINNYLNWYQQKPGKAPTLLIYAASSLQSGVPSRFSGSRSGTDFTLTISSLQPEDFAAYFCQQTYSNPTFGQGTKVEVKRTVAAPSVFIFPPSDEQLKSGTASVVCLLNNFYPREAKVQWKVDNALQSGNSQESVTEQDSKDSTYSLSSTLTLSKADYEKHKVYACEVTHQGLSSPVTKSFNRGEC,16 geometric mean of fluorescence intensity,3.2,88,121 geometric mean of fluorescence intensity
H69070.4 (anti-MSLN/CD3ε heterodimeric bispecific antibody) (bispecific antibody) chain 1: QVQLVESGGGVVQPGRSLRLSCAASGFTFSSYGMHWVRQAPGKGLEWVAVISYPGNTKYYADSVKGRFTISRDNSKNTLYLQMNSLRAEDTAVYFCARDQKEWRLIFDYWGQGTLVTVSSASTKGPQVQLQESGPGLVKPSETLSLTCTVSGGSIISHYWSWIRQPPGKGLEWIGYIYYSGSTNYNPSLKSRVTISVDTSKNQFSLKLTSVTAADTAVYYCARDGWSAFDYWGQGTLVTVSSASTKGPSVFPLAPCSRSTSESTAALGCLVKDYFPEPVTVSWNSGALTSGVHTFPAVLQSSGLYSLSSVVTVPSSNFGTQTYTCNVDHKPSNTKVDKTVGGGGSAAAVPRDLEVVAATPTSLLISWDAPHHGVAYYRITYGETGGNSPVQEFTVPGSKSTATISGLKPGVDYTINVYAVLAYPRGYPLSKPISINYRTDYKDDDDKGSSHHHHHH chain 2: DIQMTQSPSSVSASVGDRVTITCRASQGISSWLAWYQQKPGKAPKLLIYAASSLQSGVPSRFSGSGSGAAFTLTISSLQPEDFATYFCQQANSFPLTFAGGTKVDIKRTVAAPDIQMTQSPSSLSASVGDRVTITCRASQGIRNALGWYQQKPGKAPKRLIYAASSLQSGVPSRFSGSGSGTEFTLTISSLQPEDFATYYCLQHNSYPRTFGQGTKVEIRRTVAAPSVFIFPPSDEQLKSGTASVVCLLNNFYPREAKVQWKVDNALQSGNSQESVTEQDSKDSTYSLSSTLTLSKADYEKHKVYACEVTHQGLSSPVTKSFNRGEC,9 geometric mean of fluorescence intensity,3,88,127 geometric mean of fluorescence intensity

# Reference: patent US20160115241A1 (Amgen, published 2016)
